These results are taken from patent publication US5773001 (American Cyanamid Company, dated 1998).

Experiment [1] addresses CD33 antigen (human) (UniProt P20138). Put plainly: competition with 125I-labelled native antibody on HEL 92.1.7 cells; IC50 (reference) / IC50 (sample).
For experiment [2] the target is unchanged.
A further experiment has as its target soluble CD33 antigen (Homo sapiens (Human), UniProt P20138). Put plainly: inhibition of binding to HL60 cells by pre-incubation with soluble antigen.
For experiment [3], the target named is CD33 antigen (human) (UniProt P20138). In words: competition binding on HL60 cells against murine antibody.
Experiment [4] has as its target polyepithelial mucin (PEM) antigen on cells (human) (UniProt P15941).
Experiment [5] has the same target. In words: competition with 125I-labelled native antibody on A2780DDP cells; IC50 (reference) / IC50 (sample).
In experiment [6] the target is T1, polymorphic epithelial mucin (PEM) (human, UniProt P15941). In words: reactivity of affinity column fractions with the CTM01 MAb.
In experiment [7] the target is T1, polymorphic epithelial mucin (PEM). In words: competition EIA on PEM-coated plates; competitor biotinylated CTM01 MAb.

Chain of polyepithelial mucin (PEM) antigen on cells (human) (P15941 24-1255): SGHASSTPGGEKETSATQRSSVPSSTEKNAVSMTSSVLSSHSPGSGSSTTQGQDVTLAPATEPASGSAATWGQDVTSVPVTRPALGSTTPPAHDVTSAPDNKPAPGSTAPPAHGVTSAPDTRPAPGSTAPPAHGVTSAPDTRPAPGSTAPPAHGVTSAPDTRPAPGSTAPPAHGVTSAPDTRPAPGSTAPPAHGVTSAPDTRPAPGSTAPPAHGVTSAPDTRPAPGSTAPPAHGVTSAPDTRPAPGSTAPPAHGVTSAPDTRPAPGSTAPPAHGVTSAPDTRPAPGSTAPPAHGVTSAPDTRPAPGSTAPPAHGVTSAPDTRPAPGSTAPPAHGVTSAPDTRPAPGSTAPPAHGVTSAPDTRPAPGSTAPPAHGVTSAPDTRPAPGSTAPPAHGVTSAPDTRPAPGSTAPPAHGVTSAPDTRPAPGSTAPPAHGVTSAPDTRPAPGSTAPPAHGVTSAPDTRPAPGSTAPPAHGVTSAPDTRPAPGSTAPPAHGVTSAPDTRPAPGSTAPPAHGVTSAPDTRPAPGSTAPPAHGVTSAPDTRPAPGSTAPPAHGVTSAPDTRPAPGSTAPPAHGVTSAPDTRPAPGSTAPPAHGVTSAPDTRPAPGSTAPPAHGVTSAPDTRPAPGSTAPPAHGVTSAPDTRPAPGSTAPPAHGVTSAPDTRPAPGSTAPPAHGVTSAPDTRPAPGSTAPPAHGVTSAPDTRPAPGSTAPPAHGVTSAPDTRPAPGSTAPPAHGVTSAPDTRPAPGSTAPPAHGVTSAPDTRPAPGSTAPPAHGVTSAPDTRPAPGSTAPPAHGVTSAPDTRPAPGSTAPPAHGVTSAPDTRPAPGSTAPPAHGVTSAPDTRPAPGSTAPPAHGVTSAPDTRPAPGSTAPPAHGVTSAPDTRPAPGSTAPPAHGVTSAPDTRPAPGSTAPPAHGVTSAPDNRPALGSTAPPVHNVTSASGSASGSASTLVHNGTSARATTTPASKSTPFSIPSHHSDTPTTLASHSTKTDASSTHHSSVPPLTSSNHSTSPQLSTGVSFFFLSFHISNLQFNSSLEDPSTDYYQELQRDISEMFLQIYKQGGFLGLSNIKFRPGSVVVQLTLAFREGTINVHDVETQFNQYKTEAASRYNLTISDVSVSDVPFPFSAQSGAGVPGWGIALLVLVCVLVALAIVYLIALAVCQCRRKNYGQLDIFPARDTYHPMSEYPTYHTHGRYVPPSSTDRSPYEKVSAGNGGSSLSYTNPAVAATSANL

The molecule “Conjugate of 4-formylbenzoic acid (2) condensed with Calicheamicin N-acetyl gamma dimethyl hydrazide and m-P67.6 (antibody)” registered a Rel. Affinity with CD33 antigen (human) [1] of 1.05. The In vitro IC50 (3H-thymidine incorporation) with CD33 antigen (human) [2] worked out at 4 ng/mL.

B1: h-P67.6 (antibody, V domains shown)
VH: EVQLVQSGAEVKKPGSSVKVSCKASGYTITDSNIHWVRQAPGQSLEWIGYIYPYNGGTDYNQKFKNRATLTVDNPTNTAYMELSSLRSEDTDFYYCVNGNPWLAYWGQGTLVTVSS
VL: DIQLTQSPSTLSASVGDRVTITCRASESLDNYGIRFLTWFQQKPGKAPKLLMYAASNQGSGVPSRFSGSGSGTEFTLTISSLQPDDFATYYCQQTKEVPWSFGQGTKVEVKR
As for B1, the binding result with soluble CD33 antigen was “binds”. In the experiment with CD33 antigen (human) [3], this molecule registered a loss in immunoaffinity against the murine antibody of 50%.

B2: Conjugate of 4-formylbenzoic acid (2) condensed with Calicheamicin N-acetyl gamma dimethyl hydrazide and m-CT-M-01 (antibody, V domains shown)
VH: QIQLQQSGPELVKPGASVKISCKASGYTFTDYYINWMKQKPGQGLEWIGWIDPGSGNTKYNEKFKGKATLTVDTSSSTAYMQLSSLTSEDTAVYFCAREKTTYYYAMDYWGQGTSVTVSA
VL: DIVMTQAAPSVPVTPGESLSISCRSSKSLLHSNGDTFLYWFLQRPGQSPQLLIYRMSNLASGVPDRFSGSGSGTAFTLRVSRVEAEDVGVYYCMQHLEYPFTFGAGTKLELKR
modifications: drug-linker amide on lysine side chains, sites not stated; drug-linker amide on lysine side chains, sites not stated
Take B2: in experiment [4], the In vitro IC50 (3H-thymidine incorporation) worked out at 5.6 ng/mL. The molecule further registered a Rel. Affinity in experiment [5] of 0.9.

B3: CTM01 MAb (antibody, V domains shown)
VH: B2 VH
VL: B2 VL
Consider B3, for which the binding result in experiment [6] is “binds”.

B4: gL1gH2 (antibody, V domains shown)
VH: QIQLVQSGAEVKKPGSSVKVSCKASGYTFTDYYINWMRQAPGQGLEWIGWIDPGSGNTKYNEKFKGRATLTVDTSTNTAYMELSSLRSEDTAFYFCAREKTTYYYAMDYWGQGTLVTVSS
VL: DIQMTQSPSTLSASVGDRVTITCRSSKSLLHSNGDTFLYWFQQKPGKAPKLLMYRMSNLASGVPSRFSGSGSGTEFTLTISSLQPDDFATYYCMQHLEYPFTFGQGTKVEVKR
B4: the binding result in experiment [7] was “binds”.
